Laboratory results from patent publication US20130116182A1, “Factor VIII B Cell Epitope Variants Having Reduced Immunogenicity” (priority 2009, published 2013).
Entries after “also recorded” stand apart in the source; their conditions may differ. Read-outs that look alike come from different tables or passages of the source. No end group written: not given here.

T1: Recombinant HLA-DRB1*1101 protein (human)
T1 chain 1: not shown
T1 chain 2: not shown

T2: Recombinant HLA-DRB1*0101 protein (human)
T2 chain 1: not shown
T2 chain 2: not shown

T3: Recombinant HLA-DRB1*1104 protein (human)
T3 chain 1: not shown
T3 chain 2: not shown

T4: Recombinant HLA-DRB1*0401 protein (human)
T4 chain 1: not shown
T4 chain 2: not shown

T5: Recombinant HLA-DRB1*1501 protein (human)
T5 chain 1: not shown
T5 chain 2: not shown


Key:
[1] = molecular target: DRB1*1101 (DR1101) (Homo sapiens, UniProt P01903+P01911, A100R/A169T/A87E/I96F/K41T/L162R/M171V/P40S/Q125H/Q178H/Q39Y/Q99D/R42S/S66Y/T262R/V115G/W38E); experiment: HLA-DR peptide binding competition assay, DR1101
[2] = molecular target: BO2C11 Fab fragment; experiment: SPR, BO2C11 Fab on chip, 25 C, 1:1 model
[3] = molecular target: BO2C11 Fab fragment; experiment: SPR at 10-40 C, van't Hoff analysis (KD° from ΔGA°)
[4] = molecular target: BO2C11 Fab fragment; experiment: SPR kinetic runs at 25 C (kd/ka)
[5] = molecular target: BO2C11 Fab fragment; experiment: SPR at 10-40 C, van't Hoff analysis
[6] = molecular target: BO2C11 Fab fragment; experiment: SPR, BO2C11 Fab on chip, 25 C
[7] = molecular target: DRB1*0401 (DR0401) (Homo sapiens, UniProt P01903+P01911, A100K/A169T/F76Y/I96L/K127E/L162R/M171V/N62H/P40V/Q125Y/R42H/S133A/S149N/S66Y/V115G/V209L/W38E); experiment: HLA-DR peptide binding competition assay, DR0401; conditions: FVIII2194-2205 wild-type vs F2196A peptide
[8] = molecular target: HLA-DRB1*0101 (DR0101) (Homo sapiens, UniProt P01903+P01911, A100R/D57E/F55L/F60I/F76Y/I96L/L162R/M171V/P40L/Q125E/R42F/V115G/Y59C); experiment: HLA-DR peptide binding competition assay, DR0101; conditions: FVIII2194-2205 wild-type vs F2196A peptide
[9] = molecular target: DRB1*1501 (DR1501) (Homo sapiens, UniProt P01903+P01911); experiment: HLA-DR peptide binding competition assay, DR1501; conditions: FVIII2194-2205 wild-type vs F2196A peptide
[10] = molecular target: Recombinant HLA-DRB1*1101 protein (human)
[11] = molecular target: Recombinant HLA-DRB1*1101 protein (human); remark: listed apart in the source
[12] = molecular target: T1, Recombinant HLA-DRB1*1101 protein …; conditions: remark: other sources report otherwise
[13] = molecular target: T2, Recombinant HLA-DRB1*0101 protein …; conditions: remark: other sources report otherwise
[14] = molecular target: T3, Recombinant HLA-DRB1*1104 protein …; conditions: remark: other sources report otherwise
[15] = molecular target: T4, Recombinant HLA-DRB1*0401 protein …; conditions: remark: other sources report otherwise
[16] = molecular target: T5, Recombinant HLA-DRB1*1501 protein …; experiment: competition with biotinylated MBP84-102, europium-streptavidin; conditions: remark: other sources report otherwise

Molecule | Kd [2] [nM] | koff [2] [s⁻¹] | kon [2] [M⁻¹ s⁻¹] | Kd [3] [nM] | Kd [4] [nM] | TΔSA° [5] [kcal/mol] | Δ(TΔSA°) (against WT-C2) [5] [kcal/mol] | ΔGA° [5] [kcal/mol] | ΔHA° [5] [kcal/mol] | ΔΔGA° (against WT-C2) [5] [kcal/mol] | ΔΔHA° (against WT-C2) [5] [kcal/mol] | kd relative to WT-C2 [6] [fold] | further results
DAQITASSYFTNMFATWSP [FVIII2187-2205] |  |  |  |  |  |  |  |  |  |  |  |  | IC50 ([1]; DR1101, concentration displacing 50% reference peptide, ± standard error of the mean, NB = no binding): 12000 ± 26000 nM
FVIII C2 domain protein R2215A (from UniProt P00451 2189-2351) | 0.15 | 0.00061 | 4.1e+06 | 0.1 | 0.15 | 11.7 | -1.2 | -13.6 | -1.91 | 2.63 | 1.43 | > 4 | 
FVIII C2 domain protein F2200A (from UniProt P00451 2189-2351) | 0.24 | 0.0023 | 9.4e+06 | 0.23 | 0.24 | 8.84 | -4.06 | -13.1 | -4.3 | 3.11 | -0.956 | > 4 | 
FVIII C2 domain protein M2199A (from UniProt P00451 2189-2351) | 0.017 | 0.00076 | 4.6e+07 | 0.03 | 0.017 | 10.5 | -2.39 | -14.3 | -3.82 | 1.91 | -0.478 | > 4 | 
FVIII C2 domain protein N2198A (from UniProt P00451 2189-2351) | 0.056 | 0.00035 | 6.2e+06 | 0.068 | 0.056 | 10.8 | -2.15 | -13.9 | -3.11 | 2.39 | 0.239 | > 4 | 
FVIII593-603: truncated peptide of FVIII589-608, residues 593-603 (RFLPNPAGVQL) |  |  |  |  |  |  |  |  |  |  |  |  | affinity for recombinant DR1101 relative to FVIII589-608 (fold lower) ([1]; truncated peptides, competition assay): 10 fold
SYFTNMFATWSP [FVIII2194-2205] |  |  |  |  |  |  |  |  |  |  |  |  | binding to DR0401 [7]: bound effectively; also recorded: lower affinity; binding to DR0101 [8]: bound effectively; binding to DR1501 [9]: bound effectively; also recorded: lower affinity
FVIII C2 domain protein F2196A (from UniProt P00451 2189-2351) | 0.22 | 0.0029 | 1.3e+07 | 0.1 | 0.22 | 9.8 | -3.11 | -13.6 | -3.82 | 2.63 | -0.478 | > 4 | 
LHEVAYWYILSIGAQTDFLS [FVIII637-656 peptide] |  |  |  |  |  |  |  |  |  |  |  |  | IC50 [10]: 300 nM
FLPNPAGVQL [FVIII594-603 peptide] |  |  |  |  |  |  |  |  |  |  |  |  | IC50 [11]: 12800 nM
RFLPNPAGVQL [FVIII593-603 peptide] |  |  |  |  |  |  |  |  |  |  |  |  | IC50 [11]: 5700 nM
LTRYYSSFVNMERDLASGLI [FVIII529-548 peptide] |  |  |  |  |  |  |  |  |  |  |  |  | IC50 [10]: 200 nM
ENIQRFLPNPAGVQLEDPEF [FVIII589-608 peptide] |  |  |  |  |  |  |  |  |  |  |  |  | IC50 [12]: 1100 nM; IC50 [13]: 4200 nM; IC50 [14]: 59000 nM; IC50 [15]: 38000 nM; IC50 [16]: 4600 nM
LYGEVGDTLLIIFKNQASRP [FVIII453-472 peptide] |  |  |  |  |  |  |  |  |  |  |  |  | IC50 [10]: 200 nM
